Data published in PMC4428071 (2015).
Read-outs that look alike come from different tables or passages of the source.

B1: 6D8 scFv (scFv, V domains shown)
VH: QVQLQQSGDELVKPGASVKLSCTVSGFNIKDDFIHWMKQRPEQGLEWIGRIDPANGYTKYAPKFQDKATMTADTSSNTAYLQLSSLASEDAAVYYCATYGVAYWGQGTLVTVSA
VL: DIVLTQSPASLAVSLGQRATISCKASQSVDHDGDSYMNWFQQKPGQSPKLLIYAASNLESGIPARFSGSGSGTDFTLNIHPVEEEDAATYYCQQTNEDPYTFGGGTKLEIK

Tests used:
Test in all cases: ITC
6D8 scFv = molecular target: B1
[1] = molecular target: T1, full-length recombinant FC27 MSP2 (Plasmodium falciparum, UniProt P19260 21-261)
T1 chain: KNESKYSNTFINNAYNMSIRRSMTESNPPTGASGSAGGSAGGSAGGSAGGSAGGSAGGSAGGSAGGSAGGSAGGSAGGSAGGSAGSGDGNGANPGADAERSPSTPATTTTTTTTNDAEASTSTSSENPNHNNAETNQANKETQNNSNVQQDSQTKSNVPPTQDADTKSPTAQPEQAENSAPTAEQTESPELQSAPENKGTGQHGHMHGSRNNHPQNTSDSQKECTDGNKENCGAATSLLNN

[2] = molecular target: T2, full-length recombinant 3D7 MSP2 (Plasmodium falciparum, UniProt P50498 21-246)
T2 chain: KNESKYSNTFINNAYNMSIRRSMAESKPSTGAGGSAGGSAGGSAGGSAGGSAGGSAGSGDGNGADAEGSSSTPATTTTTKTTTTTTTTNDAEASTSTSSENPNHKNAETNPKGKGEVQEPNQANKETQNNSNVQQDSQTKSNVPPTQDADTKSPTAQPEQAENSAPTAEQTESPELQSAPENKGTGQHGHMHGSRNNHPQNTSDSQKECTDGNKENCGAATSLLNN

[3] = molecular target: T1, full-length recombinant FC27 MSP2
[4] = molecular target: T2, full-length recombinant 3D7 MSP2

Row | Binder | Kd (6D8 scFv) [nM] | Kd [1] [nM] | Kd [2] [nM] | Kd [3] [nM] | Kd [4] [nM]
1 | NAYNMSIRRSMANEGSN [FC27-MSP2_(14-30)] | 16 | – | – | – | –
2 | mouse monoclonal antibody 6D8 (antibody, V domains shown) VH: QVQLQQSGDELVKPGASVKLSCTVSGFNIKDDFIHWMKQRPEQGLEWIGRIDPANGYTKYAPKFQDKATMTADTSSNTAYLQLSSLASEDAAVYYCATYGVAYWGQGTLVTVSA VL: DIVLTQSPASLAVSLGQRATISCKASQSVDHDGDSYMNWFQQKPGQSPKLLIYAASNLESGIPARFSGSGSGTDFTLNIHPVEEEDAATYYCQQTNEDPYTFGGGTKLEIK | – | 16 | 64 | – | –
3 | B1 | – | 13 | 61 | 13 | 61
4 | NAYNMSIRRSMAESKPS [3D7-MSP2_(14-30)] | 64 | – | – | – | –
